# According to publication PMC10756261 (Proceedings of the National Academy of Sciences of the …, 2023):
# T1: GST-RPA1a (Arabidopsis thaliana, UniProt Q9SKI4 1-640)
# T1 sequence (looked up): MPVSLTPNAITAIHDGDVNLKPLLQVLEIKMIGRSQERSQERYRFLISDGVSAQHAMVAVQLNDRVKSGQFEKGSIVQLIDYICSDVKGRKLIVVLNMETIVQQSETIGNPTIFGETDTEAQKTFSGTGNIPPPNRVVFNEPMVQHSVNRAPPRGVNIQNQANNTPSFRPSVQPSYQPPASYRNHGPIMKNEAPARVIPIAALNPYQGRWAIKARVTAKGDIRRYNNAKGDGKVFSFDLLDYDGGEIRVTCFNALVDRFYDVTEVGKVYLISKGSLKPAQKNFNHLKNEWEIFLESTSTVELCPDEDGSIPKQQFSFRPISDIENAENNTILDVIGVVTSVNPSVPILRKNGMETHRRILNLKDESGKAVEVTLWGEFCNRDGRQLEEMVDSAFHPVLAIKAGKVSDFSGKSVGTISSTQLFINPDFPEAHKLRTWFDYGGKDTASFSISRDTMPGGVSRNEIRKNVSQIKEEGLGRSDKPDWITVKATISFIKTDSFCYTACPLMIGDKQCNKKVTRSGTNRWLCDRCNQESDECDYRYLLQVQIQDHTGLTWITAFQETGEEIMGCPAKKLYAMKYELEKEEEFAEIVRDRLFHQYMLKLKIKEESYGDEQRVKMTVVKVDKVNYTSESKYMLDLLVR
# Molecular target: T1, GST-RPA1a
# Test: pull-down
binder,measurement,value
"His-Sumo-HEI10 (natural protein, Arabidopsis thaliana, UniProt F4HRI2 1-304, looked up) MRCNACWRDLEGRAISTTCGHLLCTEDASKILSNDGACPICDQVLSKSLMKPVDINPNEEWINMAMAGISPQILMKSAYRSVMFYIAQRDLEMQYKMNRVVAQCRQKCEGMQAKFSEKMEQVHTAYQKMGKRCQMMEQEVENLTKDKQELQEKFSEKSRQKRKLDEMYDQLRSEYESVKRTAIQPANNFYPRHQEPDFFSNPAVNMMENRETIRKDRSFFSPATPGPKDEIWPARQNSSNSGPFDISTDSPAIPSDLGNRRAGRGHPVYGGGGTANPQSTLRNLILSPIKRSQLSRSRPQLFTL",binding result,binds
